According to patent US20130012432A1, “Peptides for Treatment of Obesity” (Novo Nordisk A/S, priority 2010, published 2013):

Target: human GLP-1 receptor (human) (UniProt P43220)
Assay: cell-based or functional assay

Chain of human GLP-1 receptor (human) (P43220 24-463): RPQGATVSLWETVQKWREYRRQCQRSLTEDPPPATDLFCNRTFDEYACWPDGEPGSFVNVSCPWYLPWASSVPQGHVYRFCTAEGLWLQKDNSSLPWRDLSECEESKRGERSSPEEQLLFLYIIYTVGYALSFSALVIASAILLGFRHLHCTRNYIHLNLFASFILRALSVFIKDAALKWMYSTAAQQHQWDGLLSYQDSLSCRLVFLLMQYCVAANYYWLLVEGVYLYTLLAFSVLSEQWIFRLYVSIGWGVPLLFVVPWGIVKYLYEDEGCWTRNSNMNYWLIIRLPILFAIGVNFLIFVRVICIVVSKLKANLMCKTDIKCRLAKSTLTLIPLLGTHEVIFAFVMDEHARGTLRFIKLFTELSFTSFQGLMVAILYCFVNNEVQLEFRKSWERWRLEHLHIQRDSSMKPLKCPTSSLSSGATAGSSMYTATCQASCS

“N-epsilon37-[2-(2-{2-[2-(2-{2-[(S)-4-Carboxy-4-({trans-4-[(19-carboxynonadecanoylamino)methyl]cyclohexanecarbonyl}amino)butyrylamino]ethoxy}ethoxy)acetylamino]ethoxy}ethoxy)acetyl][DesaminoHis7,Glu22,Arg26,Arg34,Lys37]GLP-1-(7-37) (peptide)” showed an EC50 of cAMP formation (AlphaScreen, Assay XI), relative to that of compound G1 (times the EC50 of compound G1) of 5.
